Results published in publication PMC9029856, “Impact of Different [Tc(N)PNP]-Scaffolds on the Biological Properties of the Small cRGDfK Peptide: Synthesis, In Vitro and In Vivo Evaluations” (Molecules, 2022).
Values joined by “and” are separate entries in the source; they are usually repeats but may differ in a detail not shown here. Equal values may be shown once. Read-outs that look alike come from different tables or passages of the source.

Key:
[1] = tested on: M21 (αvβ3-positive) and M21L (αvβ3-negative) melanoma tumors; assay type: in vivo, NSG mice; conditions: 120 min p.i.; for M21L tumor uptake: integrin-negative M21L control tumor; for M21 tumor uptake: integrin-positive M21 xenograft; for Blood / Heart / Intestine / Kidneys / Liver / Lungs / Muscle / Spleen / Stomach: tumor-bearing mice
Experimental: In vivo tumor uptake. The in vivo integrin targeting properties of the [^99mTcN(PNP)]-labeled peptide were evaluated in M21 (integrin-positive) and M21L (integrin-negative) melanoma-bearing mice by comparing the percentage of tumor uptake of the three compounds in tumors and the respective target-to-non-target ratios. Biodistribution data outlined some differences in organ uptake compared with those attained in rats at the same injection time because the rate of metabolism is different in each animal species. […] The high renal uptake of radiotracers is partially due to their rate of excretion as well as to a specific uptake by integrins expression in the kidneys; for ^99mTc3, the M21-to-kidney ratio was 1.37.
Human melanoma M21(αvβ3-positive) were injected subcutaneously (s.c. 1 × 10^6 cells) in the right flank of six week-old male NSG mice (Charles River Laboratories). As a negative control, M21L (αvβ3-negative) were inoculated s.c. (1 × 10^6 cells) in the left flank of the same mice. Fifteen days after the inoculation, when the tumors are palpable (5–3 mm), the mice were injected in the tail vein with the selected radiolabeled peptide (20 µCi/100 µL of PBS). A group of six animals was sacrificed at 120 min p.i. by CO2 inhalation. A sample of blood was collected and tumors and normal tissues of interest were dissected, rinsed to remove the excess of blood, weighted, and their radioactivity measured using a NaI counter. Results are expressed as the percentage of injected activity per gram (% IA/g) and tumor-to-organ ratios were calculated.

serum proteins = assay type: in vitro ADME
Experimental: Thus, to have some predictive indications of the metabolic outcome of our compounds, the binding to serum proteins and the enzymatic biotransformation of ^99mTc1–3 in blood and tissue homogenates were assessed in vitro by incubating the purified compounds at 37 °C in human and mouse sera as well as in murine liver and kidney homogenates.
Protein Binding. The affinity of the ^99mTc(N) complexes toward the serum proteins was evaluated by chromatographic methods.
Upon incubation, 25 µL of each sample was withdrawn and loaded on a pre-spun (735× g for 2 min) Sephadex G-50 mini-column. The column was centrifuged at 735 × g for 1 min. The collected eluate and the column were counted in a NaI-scintillation counter. The protein-bound complex was calculated as the percentage of the total activity.

[2] = parameters: species or system Sprague Dawley rats; conditions: rat, in vivo
Experimental: As expected, MRT values of liver and kidneys were much higher than the dose of stomach, spleen, lung, and heart.
The time–activity curves of the main organs were obtained using the biodistribution data (%IA/organ) as input for the CoKiMo spreadsheet software. Then, the organ mean residence times (MRT) were computed by integration of the organ activity curves, extrapolated until 5 half-lives of Tc-99m (30 h) and corrected for its physical decay, to evaluate the pharmacokinetic profile of each radiolabeled peptide.

[3] = parameters: species or system Sprague Dawley rats; conditions: rat, in vivo, iv, 15 uCi/100 uL
Experimental: Pharmacokinetics and metabolism.
Female Sprague Dawley rats weighing 180–200 g were anesthetized with an intraperitoneal injection of a mixture of Zoletil (40 mg/kg) and xylazine (2 mg/kg). A jugular vein was surgically exposed, and the solution containing the radiolabeled peptide was injected (15 µCi/100 µL). The rats (n = 3) were scarified by cervical dislocation at different times after injection. The blood was withdrawn from the heart with a syringe immediately after death and quantified. Organs were excised, rinsed in saline, weighed, and the activity was counted in a NaI counter. The results were expressed as the percentage of injected activity per gram of tissue (%IA/g) to be able to compare our results with those reported in the literature.

[4] = assay type: physicochemical
Experimental: To explore the impact of the PNP ligand on the lipophilicity of the complexes, Log Ps in a mixture of n-octanol and PBS were determined. The lipophilicity decreased in the order ^99mTc1 > ^99mTc2 > ^99mTc3. The lipophilic character of each compound correlated well with the corresponding HPLC retention time and protein binding behavior.
Determination of log P values. n-Octanol/PBS partition coefficients were determined by vortex mixing (20 min) 3.0 mL of n-octanol, 3.0 mL of PBS and 100 µL of the radiolabeled compound purified as above. After centrifugation (3000 g for 10 min), aliquots (100 µL) of both the organic and the aqueous phases were collected and counted with a γ-counter.

## [Tc(N)(H2NS-cRGDfK)(PNP3)]^+ [^99mTc1]
[1]
  M21/M21L ratio: 1.83
  M21/blood ratio: 29.96
  M21/kidneys ratio: 0.77
  M21/liver ratio: 0.88
  M21/lung ratio: 2.53
  M21/muscle ratio: 9.15
  M21L tumor uptake: 1.73 ± 0.19 %IA/g
  M21 tumor uptake: 3.2 ± 0.6 %IA/g and 3.17 ± 0.60 %IA/g
  Blood: 0.07 ± 0.02 %IA/g
  Heart: 0.47 ± 0.03 %IA/g
  Intestine: 2.30 ± 0.10 %IA/g
  Kidneys: 4.10 ± 0.37 %IA/g
  Liver: 3.59 ± 0.31 %IA/g
  Lungs: 1.25 ± 0.23 %IA/g
  Muscle: 0.37 ± 0.04 %IA/g
  Spleen: 1.61 ± 0.01 %IA/g
  Stomach: 1.22 ± 0.15 %IA
Serum proteins
  % Protein Binding: 14.95 ± 1.95%
[2]
  MRT Blood: 14.7 min
  MRT Heart: 0.3 min
  MRT Kidney: 9.2 min
  MRT Liver: 30.5 min
  MRT Lung: 0.9 min
  MRT Spleen: 1.2 min
  MRT Stomach: 1.5 min
[3]; 0.5 h
  Blood: 0.81 ± 0.05 %IA/g
  Heart: 0.26 ± 0.05 %IA/g
  Intestine: 0.65 ± 0.16 %IA/g
  Kidneys: 2.71 ± 0.18 %IA/g
  Liver: 0.96 ± 0.10 %IA/g
  Lungs: 0.64 ± 0.09 %IA/g
  Muscle: 0.21 ± 0.09 %IA/g
  Spleen: 0.65 ± 0.09 %IA/g
  Stomach: 0.53 ± 0.07 %IA
  Urine: 27.2 ± 11.7 %IA
[3]; 1 h
  Blood: 0.30 ± 0.04 %IA/g
  Heart: 0.15 ± 0.01 %IA/g
  Intestine: 0.60 ± 0.12 %IA/g
  Kidneys: 1.57 ± 0.13 %IA/g
  Liver: 0.75 ± 0.02 %IA/g
  Lungs: 0.43 ± 0.01 %IA/g
  Muscle: 0.13 ± 0.06 %IA/g
  Spleen: 0.51 ± 0.04 %IA/g
  Stomach: 0.41 ± 0.02 %IA
  Urine: 33.1 ± 5.6 %IA
[3]; 2 h
  Blood: 0.09 ± 0.01 %IA/g
  Heart: 0.10 ± 0.02 %IA/g
  Intestine: 0.40 ± 0.07 %IA/g
  Kidneys: 0.92 ± 0.20 %IA/g
  Liver: 0.68 ± 0.06 %IA/g
  Lungs: 0.25 ± 0.03 %IA/g
  Muscle: 0.10 ± 0.06 %IA/g
  Spleen: 0.47 ± 0.04 %IA/g
  Stomach: 0.34 ± 0.04 %IA
  Urine: 54.3 ± 1.9 %IA
[3]; 4 h
  Blood: 0.05 ± 0.01 %IA/g
  Heart: 0.08 ± 0.01 %IA/g
  Intestine: 0.38 ± 0.01 %IA/g
  Kidneys: 0.88 ± 0.09 %IA/g
  Liver: 0.66 ± 0.07 %IA/g
  Lungs: 0.16 ± 0.04 %IA/g
  Muscle: 0.06 ± 0.01 %IA/g
  Spleen: 0.45 ± 0.00 %IA/g
  Stomach: 0.29 ± 0.02 %IA
  Urine: 55.9 ± 7.1 %IA
[4]
  Log P: −1.72 ^1

## [Tc(N)(H2NS-cRGDfK)(PNP3OH)]^+ [^99mTc3]
[1]
  M21/M21L ratio: 5.60
  M21/blood ratio: 73.42
  M21/kidneys ratio: 1.23
  M21/liver ratio: 1.11
  M21/lung ratio: 2.98
  M21/muscle ratio: 16.72
  M21L tumor uptake: 0.70 ± 0.16 %IA/g
  M21 tumor uptake: 3.9 ± 0.7 %IA/g and 3.92 ± 0.69 %IA/g
  Blood: 0.05 ± 0.01 %IA/g
  Heart: 0.44 ± 0.09 %IA/g
  Intestine: 3.09 ± 0.62 %IA/g
  Kidneys: 3.34 ± 0.18 %IA/g
  Liver: 3.22 ± 0.24 %IA/g
  Lungs: 1.32 ± 0.20 %IA/g
  Muscle: 0.23 ± 0.03 %IA/g
  Spleen: 1.43 ± 0.19 %IA/g
  Stomach: 1.05 ± 0.14 %IA
Serum proteins
  % Protein Binding: 7.91 ± 2.01%
[2]
  MRT Blood: 14.5 min
  MRT Heart: 0.4 min
  MRT Kidney: 36.7 min
  MRT Liver: 26.7 min
  MRT Lung: 1.6 min
  MRT Spleen: 0.8 min
  MRT Stomach: 2.1 min
[3]; 0.5 h
  Blood: 0.46 ± 0.07 %IA/g
  Heart: 0.25 ± 0.06 %IA/g
  Intestine: 1.29 ± 0.13 %IA/g
  Kidneys: 5.22 ± 0.44 %IA/g
  Liver: 0.90 ± 0.09 %IA/g
  Lungs: 0.62 ± 0.08 %IA/g
  Muscle: 0.17 ± 0.01 %IA/g
  Spleen: 0.43 ± 0.05 %IA/g
  Stomach: 0.72 ± 0.04 %IA
  Urine: 27.8 ± 5.6 %IA
[3]; 1 h
  Blood: 0.25 ± 0.03 %IA/g
  Heart: 0.15 ± 0.00 %IA/g
  Intestine: 1.95 ± 0.17 %IA/g
  Kidneys: 4.83 ± 0.35 %IA/g
  Liver: 0.80 ± 0.06 %IA/g
  Lungs: 0.49 ± 0.01 %IA/g
  Muscle: 0.13 ± 0.01 %IA/g
  Spleen: 0.39 ± 0.04 %IA/g
  Stomach: 0.64 ± 0.08 %IA
  Urine: 31.2 ± 3.0 %IA
[3]; 2 h
  Blood: 0.16 ± 0.01 %IA/g
  Heart: 0.13 ± 0.02 %IA/g
  Intestine: 3.76 ± 0.27 %IA/g
  Kidneys: 4.44 ± 0.32 %IA/g
  Liver: 0.75 ± 0.09 %IA/g
  Lungs: 0.37 ± 0.06 %IA/g
  Muscle: 0.12 ± 0.00 %IA/g
  Spleen: 0.36 ± 0.02 %IA/g
  Stomach: 0.57 ± 0.03 %IA
  Urine: 44.2 ± 10.9 %IA
[3]; 4 h
  Blood: 0.09 ± 0.01 %IA/g
  Heart: 0.12 ± 0.03 %IA/g
  Intestine: 4.17 ± 0.59 %IA/g
  Kidneys: 4.22 ± 0.45 %IA/g
  Liver: 0.67 ± 0.04 %IA/g
  Lungs: 0.32 ± 0.02 %IA/g
  Muscle: 0.08 ± 0.00 %IA/g
  Spleen: 0.34 ± 0.04 %IA/g
  Stomach: 0.46 ± 0.04 %IA
  Urine: 30.2 ± 9.45 %IA
[4]
  Log P: −2.39
